Publication PMC8317047, “Characterisation of a hyperthermophilic transketolase from Thermotoga maritima DSM3109 as a biocatalyst for 7-keto-octuronic acid synthesis” (Organic & Biomolecular Chemistry, 2021)

Key:
purified protein [1] = substrate: O=C(O)C(=O)CO; test: purified protein; details: apparent, GA constant at 50 mM, ThDP 2.4 mM, MgCl2 9 mM, TEA 2 mM pH 7, 65 °C
purified protein [2] = substrate: O=CCO; test: purified protein; assay type: biochemical, Thermotoga maritima; details: apparent, LiHPA constant at 50 mM, ThDP 2.4 mM, MgCl2 9 mM, TEA 2 mM pH 7, 65 °C

B1: TKtmar (Thermotoga maritima MSB8) (protein)
chain: MERFPYEKLPESELKELKELGRLCRGDILKMTYIANSGHPGGSMSSIDLYLTVFKYAKLRPVDDPARDRIVISHGHTSPGVYAAMARLGFVDLDEVLAGFRHPASVFEGHVTRGVGIIDWTTGNLGQGLSAGLGFALASRFTGKDYHVFVLMSDAEQAKGQVAEARRVAKKYGVTNLTVIIDYNDAQISGRARDVMPVNIKENYLADGWRVIEIDGHDYEQIYLALKEAVEDELNPVAIIAKTVMGKGVSFMENEVKYHGKPLNREELEKALAELGIENDVDVYIEKRKQLPVEKHKKVYKTYPIKIDTGEPITYTSPTDNRSAFGKAILDLVKKNVNNPETTPIVAVDCDLKGSVKLDLLDKEFPERLLEVGVQEHNAAAMAGALSAEGVITFFADFGVFGISETYNQHRLNAINGTNLKVVVTHCGLNVGEDGKTHHGLDYVSGPMNWYGFKVIVPGDPNQTDRVVRYAAKEYGNFVIAMGRSKLPIILDENGKPFFGEGYTFEYGKIDVVRKGDDAVIITYGSTLCEAVNAADELKKEGVNVAVLNVSCPVDLDIETLKMVDGKPVLVVEDHNVFTGLGSFLGTTLLENGIIPKKYVRVGVPEFAVSGSYTMLYKLYGLDKDGIISRLREML
notes: full length with C-terminal His6 tag, pET-29:SacB-SapI, E. coli BL21(DE3), Ni-NTA purified
B1 gave a Km (purified protein [1]) of 53.8 ± 4.1 mM, a Vmax (purified protein [1]) of 330 µM/min and a kcat (purified protein [1]) of 0.77 s⁻¹. The kcat/Km (purified protein [1]) was 14.4 M⁻¹ s⁻¹, the Km (purified protein [2]) was 3.6 ± 0.4 mM and the Vmax (purified protein [2]) was 190 µM/min. It also gave a kcat (purified protein [2]) of 0.45 ± 0.03 s⁻¹ and a kcat/Km (purified protein [2]) of 126 ± 6 M⁻¹ s⁻¹.
